Data: the supplement of paper PMC9170038

Test system: MS2 coat protein
Experiment: apparent KD of MS2 coat protein; designed switch direction (-1 OFF switch, 1 ON switch): 1; higher = weaker reporter binding
Method in brief: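 The buffer was Tris-HCl pH 7.5 with KCl, MgCl2, BSA, DTT, tRNA and Tween-20. In it, SNAP-549-labelled MS2 coat protein was titrated in doubling steps from 0.7 or 1.5 nM to 3 µM over chip-bound RNA switches transcribed by stalled E. coli RNA polymerase on Illumina chips. Apparent KD is the per-design median over clusters of curve fits to normalised fluorescence.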

[1] = Eterna round: R95, input ligand: FMN 200 uM
[2] = Eterna round: R95, input ligand: microRNA oligo, concentration not stated
[3] = Eterna round: R95, input ligand: none
[4] = input ligand: microRNA oligo, concentration not stated

| Sequence | apparent KD of MS2 coat protein [1] | apparent KD of MS2 coat protein [2] | apparent KD of MS2 coat protein [3] | apparent KD of MS2 coat protein (input ligand: FMN 200 uM) | apparent KD of MS2 coat protein [4] | apparent KD of MS2 coat protein (input ligand: none) |
| --- | --- | --- | --- | --- | --- | --- |
| GUUAAACAUGAGGAUCACCCAUGUAAUAUAAUGGGAGGAUAUCUGAAUUAAUUAAAUUAAGGAGAAGGCCUAAUGG [Mat - Same State 1 - Mod of Eli - D51] (puzzle: Same State 1) | 0.0833 µM | 0.481 µM | 0.608 µM |  |  |  |
| GUUACAUGAGGAUCACCCAUGUAUGUGUGGGAGUAAGUGACUUAGGAUAUCUAAUAUUUAAAUUAAGAGAAGGAAGAUUGUUGU [JMF's solution 5] (Eterna round: R96, puzzle: Same State NG 3) |  |  |  | 0.266 µM | 0.131 µM | 0.202 µM |
| GUUACAUGAGGAUCACCCAUGUAUGUGUGGGAGUAAGUGUCUUAGGAUAUCUAUCAUUUAAGUUAAGAGAAGGAAGAUUGUUGU [JMF's solution 95] (Eterna round: R96, puzzle: Same State NG 3) |  |  |  | 0.135 µM | 0.0804 µM | 0.108 µM |
| GUUACAUGAGGAUCACCCAUGUAUGUGUGGGAGUAAGUGUCUUAGGAUAUCUAUCAUUUAAUUGAAGAGAAGGAAGAUUGUUGU [JMF's solution 99] (Eterna round: R96, puzzle: Same State NG 3) |  |  |  | 0.14 µM | 0.0712 µM | 0.113 µM |
| GUUAGGAAUCUAGCACACAUGAGGAUCACCCAUGUUAGUGGGAAGGAUAUGGUACAGAAACUGUACCAGAAGGUCUUAUUGUUU [Omei SS(NG) 3 AV14] (Eterna round: R96, puzzle: Same State NG 3) |  |  |  | 0.0938 µM | 0.0676 µM | 0.142 µM |
| GUUUGACAUGAGGAUCACCCAUGUCAUACGGACACAGGAUAUCGUGGCCUGAAGCCGUCAUGAGAAGGGUGACCAA [Ceaza] (puzzle: Same State 1) | 0.0338 µM | 0.0143 µM | 0.0125 µM |  |  |  |
| UAAAUACAUGAGGAUCACCCAUGUCAAAAGACAUGAGGAUAUGUACAGUCUUCGGUCUGUACAGAAGGCAUGAAUA [salish99_ss1_r3_097] (Eterna round: R96, puzzle: Same State 1) |  |  |  | 0.0521 µM | 0.37 µM | 0.461 µM |
| UAAAUACAUGAGGAUCACCCAUGUCAAAAGACAUGAGGAUAUGUACAGUCUUCGGUCUGUACAGAAGGCAUGAAUA [salish99_ss1_r3_097] (puzzle: Same State 1) |  | 0.434 µM |  |  |  |  |
| UACGCGAGAGGAGGAUAUGCAGAGGAUCACCCUGUAGAAGGCCUCAUAAGGAGGAUAUGCAGAGGAUCACCCUGUAGAAGGCCU [pwkr ssNG DX.22] (Eterna round: R96, puzzle: Same State NG 1) |  |  |  | 0.345 µM | 0.0679 µM | 0.129 µM |
| UACUGAGUCGUAGGAUAUGUAGGAUAUGGCGAGAGCUAAGCUUGGAAGUCACUUCUGCCAGAAGGACAGAAGGACGACUCUCUC [pwkr ssNG2 2FMN + F9.14] (Eterna round: R96, puzzle: Same State NG 2) |  |  |  | 0.705 µM | 0.237 µM | 0.0555 µM |
| UACUUGGUGGUAGGAUAUGUAGGAUAUGGCGAGAGCUAAGCUUGGAAGUCACUUCAGCCAGAAGGACAGAAGGACCAGUAUCUC [pwkr ssNG2 2FMN + F9.11] (Eterna round: R96, puzzle: Same State NG 2) |  |  |  | 1.45 µM | 0.0115 µM | 0.0816 µM |
| UAGAAACAUGAGGAUCACCCAUGUGGGUUAAACACAGGAUAUCACACCAAACGAAAGGCGUGAGAAGGGUGACCGU [Xeonreais] (puzzle: Same State 1) | 0.062 µM | 0.0412 µM | 0.0391 µM |  |  |  |
| UAGAUUCACGUAGGAUAUCGACCUACAUGAGGAUCACCCAUGUUUUUGAAUAGAUUUUUUAGUUACGAGAAGGACGUUAUGUAU [JR_SSNG2_Sub063] (Eterna round: R96, puzzle: Same State NG 2) |  |  |  | 0.096 µM | 0.21 µM | 0.473 µM |
| UAUGAAUUGCAAGGAUAUUGAUAACAUGAGGAUCACCCAUGUAAUUGUUCGAGUUAGAUUAGUUACAAGAAGGUGCUAUUGUUU [JR_SSNG2_Sub038] (Eterna round: R96, puzzle: Same State NG 2) |  |  |  | 0.35 µM | 0.459 µM | 0.337 µM |
| UAUUUAAUCGUAGGAUAUAGAGUGAAAUUUGGACUAGAAGGACGUAACAUGAGGAUCACCCAUGUGGUAAGUGGGACACAGUGU [JR_SSNG1_Sub038] (Eterna round: R96, puzzle: Same State NG 1) |  |  |  | 0.15 µM | 0.0668 µM | 0.0905 µM |
| UCAAGCGCACAUGAGGAUCACCCAUGUACCGAGAGUCGUCGUCGGAGAAUGAUGCAUGCUGCUGCUAUUCCACAUUA [Default title] (puzzle: Sensor for hsa-mir-208a version 2) | 0.0895 µM | 0.0668 µM | 0.0853 µM |  |  |  |

| Sequence | apparent KD of MS2 coat protein [1] | apparent KD of MS2 coat protein [2] | apparent KD of MS2 coat protein [3] | apparent KD of MS2 coat protein (input ligand: FMN 200 uM) | apparent KD of MS2 coat protein [4] | apparent KD of MS2 coat protein (input ligand: none) |
| --- | --- | --- | --- | --- | --- | --- |
| UCUAGACAUGAGGAUCACCCAUGUCAAUAUGACACAGGAUAUCGGUACUCAUAGAGUACGCGAGAAGGGUGACUUC [Same State 1 - Mod of Vinnie Gere v.4] (puzzle: Same State 1) | 0.137 µM | 0.0455 µM | 0.0526 µM |  |  |  |
| UCUUGGUUUUUGCUCGUUUUUUGUGUUGAACAUGAGGAUCACCCAUGUAUUGUACGGUCCAAUUUAGUGGUAGUCCG [JMF 67] (puzzle: Sensor for hsa-mir-208a) | 0.0384 µM | 0.0253 µM | 0.0387 µM |  |  |  |
| UCUUGGUUUUUGCUCGUUUUUUGUGUUGAACAUGAGGAUCACCCAUGUAUUGUACGGUCCAAUUUGAUAGUGGUCCG [JMF 28] (puzzle: Sensor for hsa-mir-208a) | 0.0255 µM | 0.0149 µM | 0.0257 µM |  |  |  |
| UCUUGGUUUUUGCUCGUUUUUUGUGUUGAACAUGAGGAUCACCCAUGUAUUGUACGGUCCAAUUUGGUAAUGGUCCG [JMF 29] (puzzle: Sensor for hsa-mir-208a) | 0.0252 µM | 0.0156 µM | 0.0268 µM |  |  |  |
| UCUUGGUUUUUGCUCGUUUUUUGUGUUGAACAUGAGGAUCACCCAUGUAUUGUACGGUCCAGUUUAGUAGUGGUCCG [JMF 32] (puzzle: Sensor for hsa-mir-208a) | 0.026 µM | 0.0135 µM | 0.027 µM |  |  |  |
| UCUUGGUUUUUGCUCGUUUUUUGUGUUGAACAUGAGGAUCACCCAUGUAUUGUACGGUCCGGUUUGGUAAUGGUCCG [JMF 10] (puzzle: Sensor for hsa-mir-208a) | 0.0244 µM | 0.0161 µM | 0.0278 µM |  |  |  |
| UGACAAGUGGUAGGAUAUCCAUGACAUGAGGAUCACCCAUGUUCUUUUGGUGUCCGUCACGGACGGGAGAAGGACCAACAUGAG [Same State NG2 S3] (Eterna round: R96, puzzle: Same State NG 2) |  |  |  | 0.0101 µM | 0.00945 µM | 0.0129 µM |
| UGCAUACAUGAGGAUCACCCAUGUCAACUUAGUCGAGGAUAUGGGCAGCCCUGAGGCGAACCAGAAGGCGAAUUGU [JL-ss1-3.01 ViennaUCT mod] (puzzle: Same State 1) |  | 0.0945 µM |  |  |  |  |
| UGCCUGAGUCGAGGAUAUUAUGGAUCCUCUAAUACAUGAGGAUCACCCAUGUAAUUAAUUAUACAUGAGAAGGCGACUCAGGCA [SSNG2/12-A2] (Eterna round: R96, puzzle: Same State NG 2) |  |  |  | 0.278 µM | 0.00626 µM | 0.0662 µM |
| UGCUAGUGGGUAGGAUAUUUAGGAUAUGCGGAAGACUAAGUCUGUAGGUCACCUAACGCAGAAGGAGAGAAGGACCCUUCAGCU [pwkr ssNG2 2FMN + F9.29] (Eterna round: R96, puzzle: Same State NG 2) |  |  |  | 0.143 µM | 0.0168 µM | 0.0128 µM |
| UGCUAGUGGGUAGGAUAUUUAGGAUAUGGGAAAGACUAAGUCUGUAGGUCACCUAACCCAGAAGGAGAGAAGGACCAUUCAGCU [pwkr ssNG2 2FMN + F9.27] (Eterna round: R96, puzzle: Same State NG 2) |  |  |  | 0.0303 µM | 0.00433 µM | 0.0285 µM |
| UGCUUCGUGUAAGGAUAUGCAGCCGUUUCGGCUGCAGAAGGUACUAUAAUACAUGAGGAUCACCCAUGUCUCUCGCUUUGCGGG [salish99_SSng1_r04_304] (Eterna round: R96, puzzle: Same State NG 1) |  |  |  |  | 0.0434 µM |  |
| UGGAAGAAUUAAGGAUAUCGAGUACAUAUGUUUAACAUGAGGAUCACCCAUGUGGGUUGCGGUAUCGAGAAGGUAAAUUACAAG [Mat - same State NG 2 - JL mod - D61] (Eterna round: R96, puzzle: Same State NG 2) |  |  |  | 0.0446 µM | 0.0405 µM | 0.044 µM |
| UGGCUCAGACGAGGAUAUAUGUGGUCACAUGAGGAUCACCCAUGUCUCGAGCUUCGGCUCGAGGCAUAGAAGGUGUCUGAGCCA [SSNG2/5-C2] (Eterna round: R96, puzzle: Same State NG 2) |  |  |  | 0.227 µM | 0.016 µM | 0.0339 µM |
| UGGCUGGUGCUAGGAUAUGCAUGAGGCCUCCUCGUAGAAGGAGCACGACAUGAGGAUCACCCAUGUGGCCGUCCGUAGACGGCU [salish99_SSNG1_r04_013] (Eterna round: R96, puzzle: Same State NG 1) |  |  |  | 0.0625 µM | 0.0359 µM | 0.0612 µM |
